This test has as its target recombinant human LOX-1 (61-273aa) (human, UniProt P78380 61-273). As to the kind of experiment: sandwich ELISA, LOX-1 immobilized, detection by anti-ApoA I antibody. As for the experimental part:
The recombinant human LOX-1 (61-273aa) or protein Dectin-1 belonging to the same family with LOX-1 for the contrast reference was immobilized on the ELISA plate at 4° C. overnight. After washing with PBS, it was blocked by HEPES buffer including 3% BSA (10 mM HEPES, 150 mM NaCl, pH7.4). After washing PBS three times, oxidized HDL, HDL, oxidized LDL and LDL were respectively added thereto, and they were incubated. After washing with PBS, chicken anti-ApoA I monoclonal antibody (chicken monoclonal […]) or HRP-labeled anti-ApoA I polyclonal antibody (sheep polyclonal […]) was added thereto. When chicken anti-ApoA I monoclonal antibody was used, chicken anti-ApoA I monoclonal antibody was added thereto and reacted for 1 hour at room temperature and then it was washed with PBS and secondary antibody: HRP-labeled Donkey anti-chicken IgY was added and incubated for 1 hour at room temperature.
After the antibody response, it was washed with PBS for 5 times. And then, TMB solution was added onto the plate and made it react them at room temperature. After stopping the reaction by 2M sulfuric acid, the absorbency at 450 nm was determined by using SpectraMax 340PC384 (Molecular Devices) to detect the oxidized HDL bound. […]

Data on 1 molecule can be found in patent US12384831 (SHINSHU UNIVERSITY, dated 2025).

B1: fusion protein of Fv-type anti-LOX-1 antibody (#10-1) and human ApoA I (31-267aa) (other)
chain: EVKLLESGGGLVQPGGSLKLSCAVSGFDFSRYWMSWVRQAPGKGLEWIGEINPDSSTINFTPSLKDKFIVSRDNAKNTLYLQMSKVRSEDTALYYCARNDVLLGAMDYWGQGTSVTVSSGGGGSGGGGSGGGGSDVLMTQTPLSLPVSLGDQASISCRSSQTIVHSNGKTYLEWYLQKPGQSPKLLIYKVSNRFSGVPDRFSGSGSGTDFTLKISRVEAEDLGVYYCFQGSHVPLTFGAGTKLELKGGGGSGGGGSGGGGSPWDRVKDLATVYVDVLKDSGRDYVSQFEGSALGKQLNLKLLDNWDSVTSTFSKLREQLGPVTQEFWDNLEKETEGLRQEMSKDLEEVKAKVQPYLDDFQKKWQEEMELYRQKVEPLRAELQEGARQKLHELQEKLSPLGEEMRDRARAHVDALRTHLAPYSDELRQRLAARLEALKENGGARLAEYHAKATEHLSTLSEKAKPALEDLRQGLLPVLESFKVSFLSALEEYTKKLNTQ
notes: Expressed from the pEF6-V5-His vector in Expi293 cells, secreted and His-purified; also called chimeric protein; artificial recombinant protein
Turning to B1, the binding result is “binds”.
